For assay [1], the target named is 新型冠状病毒Omicron突变株Spike RBD蛋白 (新型冠状病毒Omicron突变株 (SARS-CoV-2 Omicron …, UniProt P0DTC2 319-537)).
Assay [2] addresses T1, 新型冠状病毒Gamma突变株Spike RBD蛋白 (新型冠状病毒Gamma突变株 (SARS-CoV-2 Gamma …, UniProt P0DTC2 319-537)).
T1 construct: domain: Spike RBD; also called Gamma SPIKE RBD蛋白
The experiment in a line: ELISA binding experiment (Fig. 3). In general terms: ELISA stands for enzyme-linked immunosorbent assay.

In assay [3] the target is T2, 新型冠状病毒Alpha突变株Spike RBD蛋白 (新型冠状病毒Alpha突变株 (SARS-CoV-2 Alpha …, UniProt P0DTC2 319-537)).
T2 construct: domain: Spike RBD; also called Alpha SPIKE RBD蛋白
The assay is described as follows: ELISA binding experiment (Fig. 3).

Assay [4] concerns the target T3, 新型冠状病毒Beta突变株Spike RBD蛋白 (新型冠状病毒Beta突变株 (SARS-CoV-2 Beta variant), UniProt P0DTC2 319-537).
T3 construct: domain: Spike RBD; also called Beta SPIKE RBD蛋白
The assay is described as follows: ELISA binding experiment (Fig. 3).

For assay [5], the target named is T4, 新型冠状病毒Delta突变株Spike RBD蛋白 (新型冠状病毒Delta突变株 (SARS-CoV-2 Delta …, UniProt P0DTC2 319-537)).
T4 construct: domain: Spike RBD; also called Delta SPIKE RBD蛋白
The assay is described as follows: ELISA binding experiment (Fig. 3).

In assay [6] the target is T1, 新型冠状病毒Gamma突变株Spike RBD蛋白. The assay is described as follows: indirect ELISA, RBD coated at 2 μg/mL.
For assay [7], the target named is T2, 新型冠状病毒Alpha突变株Spike RBD蛋白. The assay is described as follows: indirect ELISA, RBD coated at 2 μg/mL.
The target of assay [8] is T3, 新型冠状病毒Beta突变株Spike RBD蛋白. The experiment in a line: indirect ELISA, RBD coated at 2 μg/mL.
Assay [9] has as its target T4, 新型冠状病毒Delta突变株Spike RBD蛋白. The assay is described as follows: indirect ELISA, RBD coated at 2 μg/mL.

This is an account of results in patent CN114702578A (BAISI MEDICAL DIAGNOSTICS TECH BEIJING CO LTD, dated 2022).

B1: 克隆号为3A7C12的抗体 (antibody, V domains shown)
VH: EVQLVESGGGLVKPGGSLRLSCAASGFTFSSYSMNWVRQAPGKGLEWVSSISSGSSYIYFADSVKGRFTISRDNAKNSLFLQMNSLRAEDTATYYCARAPLGYDSSGYFTMYYFDYWGQGTLVTVSS
VL: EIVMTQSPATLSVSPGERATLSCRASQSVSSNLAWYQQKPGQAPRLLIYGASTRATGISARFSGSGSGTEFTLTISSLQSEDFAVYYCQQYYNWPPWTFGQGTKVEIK
notes: also called 3A7C12克隆号抗体
On to B1, for which the dissociation constant (Kd) – broadly, the free concentration of one partner at which half of the binding sites on the other are occupied at equilibrium, for simple one-to-one binding – in assay [1] came out at 9.07 nM. For the same molecule, the binding result in assay [2], in assay [3], in assay [4] and in assay [5] was “no binding” in each case.

B2: 克隆号为3C6E1的抗体 (antibody, V domains shown)
VH: EVQLVESGGGLIQPGGSLGLSCAASGFTVSSNYMSWVRQAPGRGLEWVSVIYGGGSTTYADSVKGRFTISRDNSKNTLNLQMNSLRAEDTAVYYCARGGRFLHVFDIWGQGTVVTVSS
VL: QSALTQPASVSGSPGQSITISCTGTSSDIGGYNYVSWYQQHPGKAPKLMIYDVTKRPSGVSNRFSGSKSGNTASLTISGLQAEDEADYHCSSYTSSSTRWVFGGGTKLTVL
Consider B2, for which the binding result in [6], in assay [7], in assay [8] and in assay [9] was “no binding (tested: 1 μg/mL)” in each case.

B3: 克隆号为9A5C5的抗体 (antibody, V domains shown)
VH: EVQLQQSGPELVKPGASVKISCKTSGYTFTEYTMHWVKQSHGKSLEWIGGINPNNGGTTYNQKFKGKATLTVDKSSSTAYMELRSLTSEDSAVYYCARDGYSFFDYWGQGTTLTVSS
VL: DIVLTQSPASLAVSLGQRATISCRASKSVSTSGYSYMHWYQQKPGQPPKLLIYLASNLESGVPARFSGSGSGTDFTLNIHPVEEEDAATYYCQHSRELFTFGSGTKLEIK
Regarding B3, the binding result in assay [6], in assay [7], in assay [8] and in [9] was “no binding (tested: 1 μg/mL)” in each case.

B4: 克隆号为1B12G6的抗体 (antibody, V domains shown)
VH: QVQLVQSGAEVKKPGSSVKVSCKASGGTFSSYTISWVRQAPGQGLEWLGRIIPILNIANYAQKFQGRVTITADKSTSTAYMELSSLRSEDTAVYYCARDGRASGLGATHYFDYWGQGTLVTVSS
VL: QSVLTQPPSVSGAPGQRVTISCTGSSSNIGAGYNVHWYQQLPGTAPKLLIYGNSNRPSGVPDRFSGSKSGTSASLAITGLQAEDEADYYCQSYDSSLSGSVFGGGTKLTVL
For B4, the binding result in assay [6], in assay [7], in [8] and in assay [9] was “no binding (tested: 1 μg/mL)” in each case.
